Patent publication US20100150906A1 (AC IMMUNE S A, published 2010)
Substitutions are numbered along the chain they refer to.

B1: C2 HuVH AF version 3 combined with the chimeric C2 kappa chain (antibody, V domains shown)
VH: EVQLVESGGGLVQPGGSLRLSCAASGFTFSSYGMSWVRQAPGKGLELVASINSNGGSTYYPDSVKGRFTISRDNAKNSLYLQMNSLRAEDTAVYYCARGDYWGQGTTVTVSS
VL: DVVMTQTPLSLPVSLGDQASISCRSSQSLVYSNGDTYLHWYLQKPGQSPKLLIYKVSNRFSGVPDRFSGSGSGTDFTLKISRVEAEDLGVYFCSQSTHVPWTFGGGTKLEIK
notes: Transient expression in HEK293; also called C2HuVHAF3/ChVK
B2: humanized antibody C2 HuVH2/HuVK3 (antibody, human IgG4 S228P, kappa, V domains shown)
VH: B1 VH with L47W, R98S
VL: DIVMTQSPLSLPVTPGEPASISCRSSQSLVYSNGDTYLHWYLQKPGQSPKLLIYKVSNRFSGVPDRFSGSGSGTDFTLKISRVEAEDVGVYYCSQSTHVPWTFGQGTKVEIKR
notes: also called C2HuVHAF2 with C2HuVK3
B3: humanized antibody C2HuVH4/HuVK1 (antibody, human IgG4 S228P, kappa, V domains shown)
VH: B1 VH with R98S
VL: B2 VL with K50Q
notes: also called H4K1; humanized H4K1
B4: chimeric antibody C2 ChVH AF/ChVK (antibody, human IgG4 S228P, kappa, V domains shown)
VH: EVQLVESGGGLVQPGGSLKLSCAASGFTFSSYGMSWVRQTPDKRLELVASINSNGGSTYYPDSVKGRFTISRDNAKNTLYLQMSSLKSEDTAMYYCASGDYWGQGSTLTVSS
VL: B2 VL with I2V, S7T, T14S, P15L, E17D, P18Q, V88L, Y92F, Q105G, V109L
notes: also called C2 VH AF/C2 VK chimeric antibody; chimeric AF

How the values were obtained:
[1] = molecular target: T1, Amyloid Beta (antigen of the Amyloid Beta ELISA) (UniProt P05067 672-713, limits assumed); assay: Amyloid Beta ELISA, conditioned medium from transient transfection
[2] = molecular target: T1, Amyloid Beta (antigen of the Amyloid …); assay: Amyloid Beta ELISA, purified antibodies
[3] = molecular target: T2, amyloid beta 1-42 monomers (UniProt P05067 672-713); assay: SPR (BIACORE), Aβ1-42 monomers immobilized on CM5 chip, antibody 0.05-1.0 µM
T2 construct: domain: amyloid beta 1-42; also called Aβ1-42 monomers; amyloid monomers
Experimental: (§1) BIACORE® technology utilizes changes in the refractive index at the surface layer upon binding of the antibody to the antigen immobilized on the layer. Binding is detected by surface plasmon resonance (SPR) of laser light refracting from the surface. Analysis of the signal kinetics on rate and off rate allows the discrimination between non-specific and specific interaction. The concentration of antibody used was in the range of 0.05 μM to 1.0 μM.

[4] = molecular target: T3, amyloid beta 1-42 fibers (UniProt P05067 672-713); assay: SPR (BIACORE), Aβ1-42 fibers immobilized on CM5 chip, antibody 0.05-1.0 µM
T3 construct: domain: amyloid beta 1-42; Many copies per fiber; also called Aβ1-42 fibers; fibrillar Aβ1-42
Experimental: as §1

T2 sequence (P05067 672-713 limits assumed): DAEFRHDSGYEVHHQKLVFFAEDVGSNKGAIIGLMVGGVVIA
T3 sequence (P05067 672-713 limits assumed): as above
T1 sequence (P05067 672-713 limits assumed): as above

Binder | binding result [1] | fold reduction of binding activity against chimeric control antibody C2 ChVHAF/ChVK [2] [fold] | Kd [3] [nM] | koff [3] [s⁻¹] | kon [3] [M⁻¹ s⁻¹] | Kd [4] [nM] | koff [4] [s⁻¹] | kon [4] [M⁻¹ s⁻¹]
B1 | no binding |  |  |  |  |  |  | 
B2 |  | ~2 |  |  |  |  |  | 
B3 |  |  | 19 | 0.00095 | 50000 | 4.7 | 0.00023 | 49000
B4 |  |  | 20 | 0.00095 | 47000 | 6.5 | 0.00033 | 51000
